For 1 substance, fold tighter binding against N-SH2 WT results are on record in article PMC11287265.

This assay has as its target SHP2 N-terminal SH2 domain, T42A (human). The assay can be described thus: fluorescence polarisation.

“fluorescent phosphopeptide derived from pTyr1179 of insulin receptor substrate 1 (IRS-1)”: the fold tighter binding against N-SH2 WT came to 5 fold.
